Experimental data published in patent US20070071675A1 (AbbVie / Abbott, published 2007).

Assays:
recombinant human IL-1α [1] = target: T1, recombinant human IL-1α (human, UniProt P01583 113-271); assay: SPR (Biacore); end of the range tied to DVD1-Ig by the Kd values of Table 13
T1 construct: Bought recombinant protein; also called hIL-1α; rhIL-1α
T1 sequence (looked up): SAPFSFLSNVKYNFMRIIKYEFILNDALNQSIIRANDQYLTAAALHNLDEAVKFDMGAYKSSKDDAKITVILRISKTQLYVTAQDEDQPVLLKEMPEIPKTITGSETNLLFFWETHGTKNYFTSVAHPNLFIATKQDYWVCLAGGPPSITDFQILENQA
Experimental: The kinetics of DVD-Ig binding to rhIL1-α and rhIL1-β was determined by surface plasmon resonance-based measurements with a Biacore 3000 instrument (Biacore AB, Uppsala, Sweden) using HBS-EP (10 mM HEPES, pH 7.4, 150 mM NaCl, 3 mM EDTA, and 0.005% surfactant P20) at 25° C. All chemicals were obtained from Biacore AB (Uppsala, Sweden) or otherwise from a different source as described herein. Approximately, 5000 RU of goat anti-human IgG Fcγ fragment specific polyclonal antibody (Pierce Biotechnology Inc, Rockford, Ill.) diluted in 10 mM sodium acetate (pH 4.5) was directly immobilized across a CM5 research grade biosensor chip using a standard amine coupling kit according to manufacturer's instructions and procedures at […]. Unreacted moieties on the biosensor surface were blocked with ethanolamine. Modified carboxymethyl dextran surface in flowcell 2 and 4 was used as a reaction surface. Unmodified carboxymethyl dextran without goat anti-human IgG in flow cell 1 and 3 was used as the reference surface. […] The association and dissociation rate constants, kon (M-1s-1) and koff (s-1) were determined under a continuous flow rate of […]. […] The equilibrium dissociation constant (M) of the reaction between DVD-Ig and rhIL1α/β was then calculated from the kinetic rate constants by the following formula: KD=koff/kon. […]

recombinant human IL-1α [2] = target: T1, recombinant human IL-1α; assay: cell-based or functional assay
recombinant human IL-1α [3] = target: T1, recombinant human IL-1α; assay: cell-based or functional assay; remark: listed apart in the source
recombinant human IL-1β = recombinant human IL-1β (human, UniProt P01584 117-269); assay: cell-based or functional assay
human IL-12 [4] = target: T2, human IL-12 (human, UniProt P29459 23-219; P29460 23-328); assay: SPR (Biacore)
T2 construct: also called hIL-12
T2 sequence (looked up) 1: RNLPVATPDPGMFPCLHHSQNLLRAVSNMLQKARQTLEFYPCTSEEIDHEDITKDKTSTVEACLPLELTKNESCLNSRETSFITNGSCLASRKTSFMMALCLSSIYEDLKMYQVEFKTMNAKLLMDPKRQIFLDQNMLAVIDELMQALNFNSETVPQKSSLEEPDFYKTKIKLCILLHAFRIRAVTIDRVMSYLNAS
T2 sequence (looked up) 2: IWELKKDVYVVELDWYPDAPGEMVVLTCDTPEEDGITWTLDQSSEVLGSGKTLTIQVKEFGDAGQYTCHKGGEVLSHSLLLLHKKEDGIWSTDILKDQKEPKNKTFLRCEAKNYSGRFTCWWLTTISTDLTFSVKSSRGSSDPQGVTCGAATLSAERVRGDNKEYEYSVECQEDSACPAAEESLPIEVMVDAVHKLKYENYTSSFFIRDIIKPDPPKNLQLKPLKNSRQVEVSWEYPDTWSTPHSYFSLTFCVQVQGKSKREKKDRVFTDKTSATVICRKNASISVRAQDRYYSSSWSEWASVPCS

human IL-18 [5] = target: T3, human IL-18 (human, UniProt Q14116 37-193); assay: SPR (Biacore)
T3 construct: also called hIL-18

human IL-12 [6] = target: T2, human IL-12; assay: cell-based or functional assay
human IL-18 [7] = target: T3, human IL-18; assay: cell-based or functional assay

B1: hIL-1a/bDVD1-Ig (bispecific antibody, human IgG1, kappa)
heavy: not shown
light: NIVLTQSPASLAVSLGQRATISCRASESVDSYGNSYMHWYQQKPGQPPKLLIYLASNLESGVPARFSGSGSRTDFTLTIDPVEADDAATYYCQQNNEDPFTFGSGTKLEIKRNIQMTQTTSSLSASLGDRVTISCRASQDISNCLNWYQQKPDGTVKLLIYYTSRLHSGVPSRFSGSGSGTDYSLTISNLEQEDIATYFCQQGKTLPYAFGGGTKLEINRRTVAAPSVFIFPPSDEQLKSGTASVVCLLNNFYPREAKVQWKVDNALQSGNSQESVTEQDSKDSTYSLSSTLTLSKADYEKHKVYACEVTHQGLSSPVTKSFNRGEC
notes: 13F5.G5 V domains fused directly (no linker) to the N-terminus of 3D12.E3 V domains; human Cγ1/Cκ; also called hIL-1α/βDVD1-Ig
fold lower affinity than the chimeric 3D12.E3 Ab (recombinant human IL-1α [1]): 2 to 3 fold
neutralizing activity, MRC-5 bioassay, fold less than the chimeric Abs (recombinant human IL-1α [2]): 3 fold

B2: hIL-1a/bDVD3a-Ig (bispecific antibody, human IgG1, kappa)
heavy: not shown
light: DIVMTQSQRFMSTSVGDRVSVTCKASQNVGTNIAWYQQKPGQSPRALIYSASYRYSGVPDRFTGSGSGTDFTLTISNVQSVDLAEYFCQQYTRYPLTFGGGTKLEIKRTVAAPETTVTQSPASLSMAIGEKVTIRCITSTDIDVDMNWYQQKPGEPPKLLISQGNTLRPGVPSRFSSSGSGTDFVFIIENMLSEDVADYYCLQSDNLPLTFGAGTKLELKRRTVAAPSVFIFPPSDEQLKSGTASVVCLLNNFYPREAKVQWKVDNALQSGNSQESVTEQDSKDSTYSLSSTLTLSKADYEKHKVYACEVTHQGLSSPVTKSFNRGEC
Potency (IC50) M, IL-1α, MRC-5 bioassay (recombinant human IL-1α [3]): 0.75 nM

B3: hIL-1a/bDVD6a-Ig (bispecific antibody, human IgG1, kappa)
heavy: not shown
light: QIVLTQSPALMSASPGEKVTMTCSASSSVNYMYWYQQKPRSSPKPWIYLTSNLASGVPARFSGSGSGTSYSLTISSMEAEDAATYYCQQWNSNPYTFGGGTKLEMKRTVAAPSVFIFPPQIVLTQSPAIMSASPGEKVTITCSASSSVSYMHWFQQKPGASPKLWIYSTSNLASGVPARFSGSGSGTSYSLTVSRMEAEDAATYYCQQRSTYPYTFGGGTKLEIKRRTVAAPSVFIFPPSDEQLKSGTASVVCLLNNFYPREAKVQWKVDNALQSGNSQESVTEQDSKDSTYSLSSTLTLSKADYEKHKVYACEVTHQGLSSPVTKSFNRGEC
Potency (IC50) M, IL-1β, MRC-5 bioassay (recombinant human IL-1β): 70 nM
Potency (IC50) M, IL-1α, MRC-5 bioassay (recombinant human IL-1α [3]): 2.3 nM

B4: hIL-1a/bDVD6b-Ig (bispecific antibody, human IgG1, kappa)
heavy: not shown
light: QIVLTQSPAIMSASPGEKVTITCSASSSVSYMHWFQQKPGASPKLWIYSTSNLASGVPARFSGSGSGTSYSLTVSRMEAEDAATYYCQQRSTYPYTFGGGTKLEIKRTVAAPSVFIFPPQIVLTQSPALMSASPGEKVTMTCSASSSVNYMYWYQQKPRSSPKPWIYLTSNLASGVPARFSGSGSGTSYSLTISSMEAEDAATYYCQQWNSNPYTFGGGTKLEMKRRTVAAPSVFIFPPSDEQLKSGTASVVCLLNNFYPREAKVQWKVDNALQSGNSQESVTEQDSKDSTYSLSSTLTLSKADYEKHKVYACEVTHQGLSSPVTKSFNRGEC
Potency (IC50) M, IL-1β, MRC-5 bioassay (recombinant human IL-1β): 0.75 nM
Potency (IC50) M, IL-1α, MRC-5 bioassay (recombinant human IL-1α [3]): 1 nM

B5: DVD1812LL (anti-IL-18/IL-12 DVD-Ig, 18-12-C, long linker) (bispecific antibody)
heavy: EVQLVQSGTEVKKPGESLKISCKGSGYTVTSYWIGWVRQMPGKGLEWMGFIYPGDSETRYSPTFQGQVTISADKSFNTAFLQWSSLKASDTAMYYCARVGSGWYPYTFDIWGQGTMVTVSSASTKGPSVFPLAPQVQLVESGGGVVQPGRSLRLSCAASGFTFSSYGMHWVRQAPGKGLEWVAFIRYDGSNKYYADSVKGRFTISRDNSKNTLYLQMNSLRAEDTAVYYCKTHGSHDNWGQGTMVTVSS
light: EIVMTQSPATLSVSPGERATLSCRASESISSNLAWYQQKPGQAPRLFIYTASTRATDIPARFSGSGSGTEFTLTISSLQSEDFAVYYCQQYNNWPSITFGQGTRLEIKRTVAAPSVFIFPPQSVLTQPPSVSGAPGQRVTISCSGSRSNIGSNTVKWYQQLPGTAPKLLIYYNDQRPSGVPDRFSGSKSGTSASLAITGLQAEDEADYYCQSYDRYTHPALLFGTGTKVTVLG
notes: see recheck on the constant domain of the DVD1812 light chains; also called DVD1812HC-LL/DVD1812LC-LL
Kd (human IL-12 [4]): 0.113 nM
Kd (human IL-18 [5]): 0.162 nM
Potency (IC50, M), IL-12, PHA blast / PBMC assay (human IL-12 [6]): 1.18e-10 M
Potency (IC50, M), IL-18, KG-1 bioassay (human IL-18 [7]): 7.8e-11 M
